Assay results: patent US20150111836A1, “CELLULAR APOBEC3 PROTEINS AND MODULATORS THEREOF FOR REGULATING DNA REPAIR PROCESSES AND TREATING PROLIFERATIVE DISEASES” (priority 2012, published 2015)

Legend:
[1] = system: primer with 3′-terminal CC; assay: Terminal cytidine deamination, DNA polymerase primer extension / PCR assay; format: biochemical; settings: FIG. 4A
Method: A3G deaminates the extreme base of the ssDNA 3′-terminus and tethers two ssDNA termini To determine whether A3G interacts with the terminal base of the ssDNA, the inventors tested terminal cytidine deamination by A3G. A primer with 3′-terminal CC was incubated with A3G and was then used for extension and PCR amplification of a target sequence. It was previously shown that A3G W285 residue contributes to formation of a hydrophobic cavity and is essential for catalytic activity. […] A cleavage resistant polynucleotide deaminase substrate, comprising an internal cytidine, was incubated with either A3G or A3G W285A. Upon deamination, the internal uridine-containing polynucleotide was susceptible to restriction, and yielded a fragment which was apparent in the PAGE analysis of the cleaved deamination products shown in FIG. 3C (bottom).

[2] = system: HRind cells (U2OS-DR-GFP); assay: DR-GFP HR reporter assay of ISceI-induced DSB repair; format: cell-based; settings: expression plasmid transfected, 52 hours after ISceI induction, FIG. 11B
Method: Repair of a unique ISceI-induced DSB by HR was assessed in U2OS-DR-GFP cells stably transfected with the Cherry-Sce-GR plasmid (HRind cells) as described in Shahar OD et al.. Cherry-ZScel-GR rapidly translocates from the cytoplasm into the nucleus on binding to triamcinolone acetonide (TA). The DR-GFP cassette enables reconstitution of GFP after ZScel-dependent HR between 2 mutated GFP sequences. Transfection of A3G or A3GW285A expression plasmids was performed in 24-well plates with GenJet (Signa-gen). Forty hours after transfection, IScel-directed DSB was induced with 10^7M TA (Sigma-Aldrich). GFP^+ cells were sorted 52 hours later by flow cytometry using FACScan as described in Shahar OD [10].

[3] = system: SC or SU oligonucleotides (80 nt); assay: Electrophoretic mobility shift assay (EMSA) of ssDNA binding; settings: biotinylated SC oligonucleotides (80 nt), FIG. 3B
Method: SC (10 pmol) was 3′ labeled with dATP-biotin using 10 u terminal deoxynucleotidyl transferase (NEB) in NEBuffer 4 (NEB) supplemented with 0.25 mM CoCl2 and 10 μM dATP-biotin (Invitrogen). Labeled oligos (200 fmol) were incubated with A3G or RPA for 8 or 30 mM, respectively, at room temperature, in EMSA buffer: 50 mM Tris (pH 7.0), 50 mM NaCl, 0.1 mg/mL BSA and 10% glycerol, in 10 μL, reaction volume. Samples were resolved by 6% native PAGE, transferred to a Hybond N nylon membrane (GE Healthcare) using a semi-dry transfer apparatus (Biorad) and UV-crosslinked (302 nm) for 15 min. Following blocking with Casein blocking buffer (Sigma), the membrane was treated with horseradish peroxidase conjugated sterptavidine (Jackson) for 20 mM at RT, washed 6 times with TBS (pH 7.4) and visualized by enhanced chemiluminescence. […] Following incubation with A3G, samples were resolved by PAGE, stained with SYBR Gold (Molecular Probes) and visualized by UV light (302 nm).

[4] = system: ss-deoxyoligonucleotide substrate; assay: Cytidine deaminase activity of purified wild-type and mutant A3G; format: biochemical
Method: Deaminase activity of purified enzyme and virion-associated A3G protein was examined as previously described. Briefly, A3G deamination reactions were performed in a total volume of 10 μl in 25 mM Tris, pH 7.0, and 0.01-1 fmol single-stranded (ss) deoxyoligonucleotide substrate at 37° C. The reaction was terminated by heating to 95° C. for 5 min. One μl of the reaction mixture was used for PCR amplification performed in 20 μl buffer S, using the following program: 1 cycle at 95° C. for 3 min, followed by 30 cycles of annealing at 61° C. for 30 s and denaturing at 94° C. for 30 s. Aliquots of the PCR products (10 μl) were incubated with Eco147I restriction enzyme for 1 h at 37° C. Completion of the restriction reaction was verified by using positive-control substrate containing CCU instead of CCC. Restriction-reaction products were loaded onto 14% gels and separated by PAGE. Gels were stained with SYBR gold nucleic acid stain diluted 1:10,000 in 0.5× Tris-Borate-EDTA buffer (TBE, pH 7.8), visualized by UV light (312 nm), captured by an Olympus C-5050 charge-coupled device (CCD) camera and analyzed by optical density (OD) scan using the TINA2.0 densitometry software. Assessment of A3G entrapped in virions was carried out with concentrated viruses stocks of 3-5 μg of p24/μl) suspended in PBS containing Triton X-100 at final concentration of 0.1% (vv) and 50 μg/ml RNase A (Sigma-Aldrich). […]

SupT11 cells = assay: γ-H2AX foci in SupT11 cells stably expressing A3G variants after IR; format: cell-based, human; settings: 24 hours after IR (4 Gy), FIG. 9B
Method: Cells were irradiated by exposure to a ^60Co source producing 1 Gy sec^−1 γ-radiation, or mock-irradiated. Following incubation at 37° C., cells were fixed, attached to glass slides by cytospin, permeabilized with detergent and blocked with 10% normal goat serum. Cells were then incubated with A3G-specific rabbit polyclonal antibody, γ-H2AX-specific monoclonal antibody, or RPA32-specific monoclonal antibody, followed by incubation with goat anti-rabbit Cy-5-conjugated antibody, goat anti-mouse Cy-2-conjugated antibody and DAPI. Slides were mounted and examined by Zeiss LSM 710 confocal microscope. Data were collected sequentially using a ×63 objective with 7-fold averaging at a resolution of […], Z-sections were obtained using an optical slice of less than 1 μm. Data were analyzed with the Zen 2009.
To assess whether A3G cytidine deaminase activity is required for DSB repair, the inventors examined whether IR-Induced 7412AX focus formation occurred differentially in SupTH cells stably expressing A3G, an E259Q catalytic mutant (as denoted by SEQ ID NO. 90) or empty vector (EV).

[5] = system: DNA1 and DNA2 ss-oligonucleotides; assay: Terminal ssDNA tethering by DNA polymerase terminal extension; format: biochemical; settings: DNA1+2, FIG. 4D
Method: DNA1 and DNA2 were annealed to an equimolar amount of a short oligonucleotide (30 nt) complementary to the 5′-termius by heating to 95° C. followed by slow cooling to RT. DNA-polymerase extension reactions were performed in a total volume of 7 μl and included 100 fmol annealed oligonucleotides, 50 μM dNTPs (dCTP, dGTP, dTTP and dATP-biotin (Invitrogen)), NEBuffer 1 (final dilution ×0.35 (NEB)), 1 mg/ml BSA, 100 fmol A3G or A3G W285A, and 5 u Klenow Fragment (3′→5′ exo(−), NEB). Reactions were incubated for 30 min at 37° C. and terminated by heating to 95° C. for 5 min and adding 5 μl formamide. Samples were then heated to 80° C. prior to loading on pre-heated 10% acrylamide gel containing 6M urea. Gels were washed in Tris-Boric acid-EDTA buffer (ph 8.3) for 15 min and transferred to nylon membranes as described in the EMSA protocol below.
To further investigate A3G-mediated terminal ssDNA tethering, the inventors developed a DNA polymerase extension assay depicted in FIG. 4C. The 5′-termini of two ss-oligonucleotides (DNA1 and DNA2, 80 nt) were annealed to complementary oligonucleotides (30 nt), leaving 3′ ssDNA overhangs. […] As expected, no extension products were detected in the presence or absence of wild-type or mutant A3G (not shown). […]

| Molecule | PCR amplification after incubation of the primer [1] | reduction of HR [2] [%] | ssDNA binding properties [3] | catalytic activity (cytidine deamination) ([4]; purified protein, FIG. 3C) | enhancement of DSB repair (SupT11 cells) | inhibition of the PCR reaction after incubation of the primer [1] [%] | dC in the oligonucleotide substrate deaminated ([4]; purified recombinant A3G alone, FIG. 14A) [%] | extension efficiency relative to Klenow fragment alone [5] | average DSB load (γ-H2AX focus formation), lower than EV control cells (SupT11 cells) |
| --- | --- | --- | --- | --- | --- | --- | --- | --- | --- |
| A3G W285A: A3G W285A catalytic mutant, deaminase-dead control that binds ssDNA (protein, A3G W285A mutant) MKPHFRNTVERMYRDTFSYNFYNRPILSRRNTVWLCYEVKTKGPSRPPLDAKIFRGQVYSELKYHPEMRFFHWFSKWRKLHRDQEYEVTWYISWSPCTKCTRDMATFLAEDPKVTLTIFVARLYYFWDPDYQEALRSLCQKRDGPRATMKIMNYDEFQHCWSKFVYSQRELFEPWNNLPKYYILLHIMLGEILRHSMDPPTFTFNFNNEPWVRGRHETYLCYEVERMHNDTWVLLNQRRGFLCNQAPHKHGFLEGRHAELCFLDVIPFWKLDLDQDYRVTCFTSASPCFSCAQEMAKFISKNKHVSLCIFTARIYDDQGRCQEGLRTLAEAGAKISIMTYSEFKHCWDTFVDHQGCPFQPWDGLDEHSQDLSGRLRAILQNQEN | normal PCR amplification | 6.2 | retained wild-type ssDNA binding properties | catalytically inactive | – | – | – | – | – |
| A3G E259Q: A3G E259Q catalytic mutant stably expressed in SupT11 cells (protein, A3G E259Q mutant, A3G E259Q catalytic mutant stably expressed in SupT11 cells) MKPHFRNTVERMYRDTFSYNFYNRPILSRRNTVWLCYEVKTKGPSRPPLDAKIFRGQVYSELKYHPEMRFFHWFSKWRKLHRDQEYEVTWYISWSPCTKCTRDMATFLAEDPKVTLTIFVARLYYFWDPDYQEALRSLCQKRDGPRATMKIMNYDEFQHCWSKFVYSQRELFEPWNNLPKYYILLHIMLGEILRHSMDPPTFTFNFNNEPWVRGRHETYLCYEVERMHNDTWVLLNQRRGFLCNQAPHKHGFLEGRHAQLCFLDVIPFWKLDLDQDYRVTCFTSWSPCFSCAQEMAKFISKNKHVSLCIFTARIYDDQGRCQEGLRTLAEAGAKISIMTYSEFKHCWDTFVDHQGCPFQPWDGLDEHSQDLSGRLRAILQNQEN | – | – | – | – | enhanced repair was not observed | – | – | – | – |
| A3G: wild-type human APOBEC3G, purified with C-terminal His6 tag from 293T cells or expressed in cells (protein, listed as Homo sapiens, C-terminal His6 tag, wild-type human APOBEC3G, purified with C-terminal His6 tag from 293T cells or expressed in cells) MKPHFRNTVERMYRDTFSYNFYNRPILSRRNTVWLCYEVKTKGPSRPPLDAKIFRGQVYSELKYHPEMRFFHWFSKWRKLHRDQEYEVTWYISWSPCTKCTRDMATFLAEDPKVTLTIFVARLYYFWDPDYQEALRSLCQKRDGPRATMKIMNYDEFQHCWSKFVYSQRELFEPWNNLPKYYILLHIMLGEILRHSMDPPTFTFNFNNEPWVRGRHETYLCYEVERMHNDTWVLLNQRRGFLCNQAPHKHGFLEGRHAELCFLDVIPFWKLDLDQDYRVTCFTSWSPCFSCAQEMAKFISKNKHVSLCIFTARIYDDQGRCQEGLRTLAEAGAKISIMTYSEFKHCWDTFVDHQGCPFQPWDGLDEHSQDLSGRLRAILQNQEN | – | 30.2 | – | – | – | ~90 | 20 | approximately 9 fold | approximately 2 fold |
